Reference: the supplement of paper PMC9112550, “Optimization of the antimicrobial peptide Bac7 by deep mutational scanning” (BMC Biology, 2022)

test system: Escherichia coli TOP10; assay: shrunken log2 fold change of peptide-encoding DNA abundance (4.5 h post-induction vs induction); higher = less antimicrobial activity (less host growth inhibition); conditions: time post-induction: 4.5 h; library: site-saturation at positions 5, 18, 19, 20
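Also: peptides expressed intracellularly from a pBAD plasmid library in pooled LB shake-flask culture, induced with 0.3% L-arabinose, DNA abundance read by NGS, three biological replicates, DESeq2 with apeglm shrinkage.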

Sequence | shrunken log2 fold change
RRIRWRPPRLPRPRPRPYVLPRP | -0.843
RRIRKRPPRLPRPRPRPFEPPRP | 0.00335
RRIRDRPPRLPRPRPRPSQHPRP | -0.343
RRIRTRPPRLPRPRPRPPNFPRP | -0.0576
RRIRYRPPRLPRPRPRPMFIPRP | -0.908
RRIRERPPRLPRPRPRPFTIPRP | -0.162
RRIRMRPPRLPRPRPRPHECPRP | 0.0178
RRIRHRPPRLPRPRPRPYVAPRP | -0.912
RRIRYRPPRLPRPRPRPAEPPRP | 0.0314
RRIRRRPPRLPRPRPRPDFLPRP | 1.31
RRIRCRPPRLPRPRPRPMKRPRP | -0.176
RRIRTRPPRLPRPRPRPWTTPRP | 0.176
RRIRTRPPRLPRPRPRPSTTPRP | -0.0853
RRIRHRPPRLPRPRPRPCHTPRP | -0.0375
RRIRLRPPRLPRPRPRPKQSPRP | -0.00745
RRIRPRPPRLPRPRPRPIGPPRP | 0.162
RRIRNRPPRLPRPRPRPGNDPRP | -0.0364
RRIRARPPRLPRPRPRPVSAPRP | 0.455
RRIRARPPRLPRPRPRPDFMPRP | 0.466
RRIRYRPPRLPRPRPRPCHYPRP | -0.00968
RRIRARPPRLPRPRPRPVTAPRP | 0.654
RRIRYRPPRLPRPRPRPLVYPRP | -1.16
RRIRLRPPRLPRPRPRPICFPRP | 0.104
RRIRWRPPRLPRPRPRPCHPPRP | -0.11
RRIRNRPPRLPRPRPRPPWEPRP | -0.0446

Sequence | shrunken log2 fold change
RRIRSRPPRLPRPRPRPWWIPRP | 0.0584
RRIRMRPPRLPRPRPRPVSSPRP | -0.0703
RRIRARPPRLPRPRPRPSYNPRP | -0.428
RRIRFRPPRLPRPRPRPARRPRP | 0.435
RRIRGRPPRLPRPRPRPCWFPRP | 0.584
RRIRNRPPRLPRPRPRPGLEPRP | -0.0966
RRIRCRPPRLPRPRPRPEILPRP | -0.0141
RRIRHRPPRLPRPRPRPQTNPRP | -0.633
RRIRVRPPRLPRPRPRPCAMPRP | -0.16
RRIRARPPRLPRPRPRPWYGPRP | -0.634
RRIRWRPPRLPRPRPRPDAAPRP | 2.23
RRIRERPPRLPRPRPRPTCSPRP | -0.397
RRIRPRPPRLPRPRPRPHTCPRP | -0.123
RRIRVRPPRLPRPRPRPKNFPRP | 0.0772
RRIRWRPPRLPRPRPRPGFEPRP | 0.427
RRIRCRPPRLPRPRPRPDRPPRP | 0.19
RRIRCRPPRLPRPRPRPNLKPRP | -0.585
RRIRKRPPRLPRPRPRPGITPRP | 0.266
RRIRIRPPRLPRPRPRPKVCPRP | -0.028
RRIRMRPPRLPRPRPRPKFPPRP | 0.455
RRIRWRPPRLPRPRPRPVGAPRP | 1.73
RRIRERPPRLPRPRPRPLQKPRP | -0.113
RRIRWRPPRLPRPRPRPEQQPRP | 1.39
RRIRDRPPRLPRPRPRPTDTPRP | 0.146
RRIRVRPPRLPRPRPRPDWAPRP | 0.133

Sequence | shrunken log2 fold change
RRIRYRPPRLPRPRPRPAEIPRP | -0.148
RRIRPRPPRLPRPRPRPVYYPRP | -0.348
RRIRCRPPRLPRPRPRPPVKPRP | -0.00107
RRIRLRPPRLPRPRPRPPGQPRP | 0.625
RRIRCRPPRLPRPRPRPSIKPRP | -0.597
RRIRYRPPRLPRPRPRPPVHPRP | -0.0526
RRIRKRPPRLPRPRPRPPNHPRP | 0.33
RRIRVRPPRLPRPRPRPIIFPRP | -0.286
RRIRTRPPRLPRPRPRPNSMPRP | -0.496
RRIRMRPPRLPRPRPRPILDPRP | -0.0606
RRIRTRPPRLPRPRPRPPGYPRP | 0.0573
RRIRTRPPRLPRPRPRPYVQPRP | -0.0752
RRIRFRPPRLPRPRPRPWCHPRP | 0.524
RRIRKRPPRLPRPRPRPPRPPRP | 1.34
RRIRIRPPRLPRPRPRPLSHPRP | -0.0521
RRIRERPPRLPRPRPRPAPFPRP | -0.244
RRIRSRPPRLPRPRPRPYVLPRP | -0.277
RRIRVRPPRLPRPRPRPPNSPRP | 0.12
RRIRSRPPRLPRPRPRPANCPRP | -0.411
RRIRHRPPRLPRPRPRPWMHPRP | 0.0155
RRIRGRPPRLPRPRPRPWQTPRP | 0.174
RRIRDRPPRLPRPRPRPQYNPRP | -0.446
RRIRARPPRLPRPRPRPGSRPRP | 0.279
RRIRYRPPRLPRPRPRPCEPPRP | 0.0986
RRIRLRPPRLPRPRPRPSYGPRP | -0.585

Sequence | shrunken log2 fold change
RRIRDRPPRLPRPRPRPLHLPRP | -0.0348
RRIRYRPPRLPRPRPRPLSMPRP | -0.036
RRIRNRPPRLPRPRPRPDVRPRP | -0.104
RRIRNRPPRLPRPRPRPAHGPRP | 0.047
RRIRLRPPRLPRPRPRPCHHPRP | -0.322
RRIRGRPPRLPRPRPRPVLDPRP | 0.419
RRIRLRPPRLPRPRPRPSHIPRP | -0.877
RRIRVRPPRLPRPRPRPRYGPRP | -0.392
RRIRPRPPRLPRPRPRPGGLPRP | 0.131
RRIRKRPPRLPRPRPRPHFHPRP | 0.0831
RRIRFRPPRLPRPRPRPLFSPRP | -0.376
RRIRTRPPRLPRPRPRPPVHPRP | 0.0813
RRIRERPPRLPRPRPRPNSKPRP | -0.863
RRIRGRPPRLPRPRPRPCYCPRP | -0.164
RRIRYRPPRLPRPRPRPQTPPRP | -0.203
RRIRNRPPRLPRPRPRPISRPRP | -0.612
RRIRWRPPRLPRPRPRPTTKPRP | 0.5
RRIRARPPRLPRPRPRPIGKPRP | -0.00841
RRIRSRPPRLPRPRPRPTFMPRP | -0.335
RRIRGRPPRLPRPRPRPEKPPRP | 0.316
RRIRTRPPRLPRPRPRPWMWPRP | 0.101
RRIRVRPPRLPRPRPRPFMHPRP | -0.156
RRIRGRPPRLPRPRPRPVIFPRP | 0.598
RRIRFRPPRLPRPRPRPHIHPRP | -1.17
RRIRGRPPRLPRPRPRPQRFPRP | 0.139

Sequence | shrunken log2 fold change
RRIRRRPPRLPRPRPRPLVQPRP | 0.355
RRIRVRPPRLPRPRPRPNQNPRP | -0.312
RRIRKRPPRLPRPRPRPIAIPRP | -0.282
RRIRSRPPRLPRPRPRPITNPRP | 0.266
RRIRCRPPRLPRPRPRPQHYPRP | -0.796
RRIRSRPPRLPRPRPRPRWQPRP | 0.166
RRIRGRPPRLPRPRPRPCHVPRP | -0.172
RRIRTRPPRLPRPRPRPRPVPRP | 0.407
RRIRMRPPRLPRPRPRPWYPPRP | -0.786
RRIRARPPRLPRPRPRPPMMPRP | 0.421
RRIRKRPPRLPRPRPRPNEFPRP | -0.042
RRIRCRPPRLPRPRPRPLHMPRP | -0.295
RRIRKRPPRLPRPRPRPRKEPRP | 0.015
RRIRHRPPRLPRPRPRPWLFPRP | -0.0716
RRIRQRPPRLPRPRPRPQDKPRP | -0.802
RRIRARPPRLPRPRPRPRLEPRP | 0.766
RRIRDRPPRLPRPRPRPTCQPRP | 1.08
RRIRCRPPRLPRPRPRPRNDPRP | -0.191
RRIRARPPRLPRPRPRPLNKPRP | 0.028
RRIRNRPPRLPRPRPRPFTQPRP | -0.348
RRIRRRPPRLPRPRPRPDADPRP | 1.78
RRIRQRPPRLPRPRPRPAIKPRP | -0.316
RRIRYRPPRLPRPRPRPGAVPRP | 0.929
RRIRGRPPRLPRPRPRPWQFPRP | 0.0819
RRIRWRPPRLPRPRPRPYGPPRP | -0.0264
